Assay results taken from patent US11433139B2, “Peptide vaccines against interleukin-31” (Zoetis Services LLC, priority 2018, dated 2022).
“Also recorded” adds a separate entry of the source. Where no end group is shown, it is not given here. The star is where a group is joined. Biotin = O=C1N[C@H]2[C@H](CS[C@H]2CCCCC(=O)*)N1

Experiments:
[1] = system: mouse anti equine IL-31 serum; experiment: Bio-layer interferometry binding of mouse serum to immobilized equine IL-31 mimotopes
Source text: Mice were immunized with full length equine IL-31 (SEQ ID NO: 165; Equine_IL-31), the corresponding nucleotide sequence for which is (SEQ ID NO: 166; […]) conjugated to CRM-197 like the method described in section 1.6 of this application. Biotin conjugated peptides representing three epitope regions described herein were designed for use with a bio-layer interferometry binding assay (Octet, ForteBio). Description of these peptides are described in FIG. 21A. Each peptide contains an N terminal biotin with a three-amino acid spacer sequence (GSG) annotated with bold underlined text in the figure. The 15H05 mimotope includes two terminal cysteine residues (also highlighted in bold and underlined) to facilitate cyclization by a disulphide bond. […] Control mouse serum was from a mouse vaccinated with an unrelated protein. The response, described here as the amplitude of the signal following 120 seconds of antiserum association, is represented on the y axis of the figure. […] In addition, the ability of these IL-31 mimotopes to be recognized by those immune responses can be assessed through binding. […] Like presentation of mimotopes described herein which elicit immune responses to full length protein, this experiment describes a reciprocal validation of these epitopes where the immune response is validated from the protein against the mimotope.

[2] = system: wildtype feline IL-31; experiment: Indirect ELISA, binding to wildtype feline IL-31
wildtype feline IL-31, sequence (as listed by the source): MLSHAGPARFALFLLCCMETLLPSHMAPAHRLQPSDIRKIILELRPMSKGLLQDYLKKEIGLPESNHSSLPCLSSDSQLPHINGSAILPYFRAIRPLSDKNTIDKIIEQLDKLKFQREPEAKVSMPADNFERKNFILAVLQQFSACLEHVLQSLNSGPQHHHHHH
Protocol: (§1) Mice and dogs were immunized with recombinant canine IL-31 (SEQ ID No. 155) for the purpose of identifying antibodies. Serum antibody titers from immunized animals were determined using an enzyme linked immunosorbent assay (ELISA). Canine or feline IL-31 (50 ng/well) was immobilized to polystyrene microplates and used as a capture antigen. Serum from immunized animals was diluted in phosphate buffered saline with 0.05% tween-20 (PBST). The presence of anti-IL-31 antibodies was detected with an appropriate secondary HRP labeled antibody. Following addition of a chromogenic substrate (SureBlue Reserve TMB 1-Component Microwell Peroxidase Substrate, KPL, Inc., Gaithersburg, Md.) and a ten minute incubation at room temperature (RT) the reaction was stopped with the addition of […] of 0.1 N HCl. The absorbance of each well was determined at an optical density (OD) of 450 nm. Antibodies were selected for their ability to bind canine and feline IL-31 using an ELISA. In some cases, further characterization was performed at the time of selection using an ELISA with a mutant form of the feline IL-31 protein as a capture antigen. Cells producing antibodies with desired binding and inhibitory properties were chosen for sequence analysis of RNA transcripts representing the variable heavy (VH) and variable light (VL) IgG chains.
(§2) For the indirect ELISA method, antibody binding to wildtype and feline IL-31 15H05 mutant proteins was assessed. […] In comparison, the 11E12 antibody bound to the wild-type feline IL-31 and its binding was not impacted by the mutations in the 15H05 epitope region as evidenced by the data in FIG. 4. To confirm binding, biacore analysis was performed using canine, feline, equine, human, feline 15H05 mutant, and feline 11E12 mutant IL-31 proteins as surfaces and a single test concentration of antibody. Similar to ELISA observations, all antibodies tested bound to wildtype feline IL-31. In agreement with the data described above in this section, mouse antibodies 11 E12 and 15H05 both bound to canine and feline IL-31 surfaces. […] From this group of nine fully canine antibodies, only ZIL1 and ZIL9 cross-reacted with equine IL-31. Of note, antibody 15H05 was the only one of all assayed herein that bound to canine, feline, and equine IL-31 indicating some level of epitope conservation across the three species. In contrast, none of the antibodies described herein bound to human IL-31. Additional biacore surfaces were used to verify ELISA observations showing differential binding of antibodies to wildtype feline IL-31 and two proteins with mutations in the 15H05 (15H05 mutant) or 11 E12 (11E12 mutant) epitopes. […] Differing results can be attributed to differences in the two assay methodologies.
(§3) To determine the impact of mAbs 11E12 and 15H05 ability to bind these mutant forms of feline IL-31, an indirect ELISA was run using the mutants directly coated on to an immunoassay plate. […] The minor attenuation of mAb 15H05s binding to the 11E12 mutant is likely due to translational effects of the mutations from movement of the two front helices effecting the 15H05 binding site. The mutations designed to affect mAb 15H05s binding (mutant 15H05) show a complete loss of mAb 1505s ability to bind this IL-31 mutant by ELISA. Unlike the 11E12 mutant, the changes in the random coil recognized by mAb 15H05 (mutant 15H05) had no impact on mAb 11E12 binding further supporting the distinction between the two epitopes (FIG. 6C).

[3] = system: feline IL-31 15H05 mutant; experiment: Indirect ELISA, binding to feline IL-31 15H05 mutant; conditions: compared with wildtype
feline IL-31 15H05 mutant, sequence (as listed by the source, change not shown): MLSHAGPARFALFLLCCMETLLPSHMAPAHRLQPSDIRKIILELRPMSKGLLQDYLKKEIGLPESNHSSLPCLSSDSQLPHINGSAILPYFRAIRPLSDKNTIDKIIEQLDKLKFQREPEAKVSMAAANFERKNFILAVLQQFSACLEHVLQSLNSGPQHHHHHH
Protocol: as §1, §2, §3

[4] = system: equine IL-31; experiment: Biacore binding, single test concentration of antibody, equine IL-31 surface
equine IL-31, sequence (as listed by the source): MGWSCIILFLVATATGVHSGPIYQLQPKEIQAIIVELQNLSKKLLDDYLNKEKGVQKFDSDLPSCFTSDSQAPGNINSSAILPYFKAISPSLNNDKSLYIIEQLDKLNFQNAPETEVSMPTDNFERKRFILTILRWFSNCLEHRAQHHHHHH
Protocol: (§4) For the indirect ELISA, binding (ELISA OD) to wildtype feline IL-31 and a feline IL-31 15H05 mutant which had mutations in the monoclonal antibody 15H05 epitope region was assessed. To confirm binding, biacore analysis was performed using canine, feline, equine, human, the feline 15H05 mutant, and feline 11E12 mutant IL-31 proteins as surfaces and a single test concentration of antibody. The feline IL-31 11E12 mutant had mutations in the monoclonal antibody 11E12 epitope region.
as §2

[5] = system: feline 15H05 mutant IL-31; experiment: Biacore binding, single test concentration of antibody, feline 15H05 mutant IL-31 surface
Protocol: as §4, §2

[6] = system: feline 11E12 mutant IL-31; experiment: Biacore binding, single test concentration of antibody, feline 11E12 mutant IL-31 surface
feline 11E12 mutant IL-31, sequence (as listed by the source, change not shown): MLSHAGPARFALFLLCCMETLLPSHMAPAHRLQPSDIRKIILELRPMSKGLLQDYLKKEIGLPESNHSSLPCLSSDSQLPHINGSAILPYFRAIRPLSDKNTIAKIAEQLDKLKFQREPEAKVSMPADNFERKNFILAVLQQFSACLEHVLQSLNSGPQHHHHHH
Protocol: as §4, §2

[7] = target: feline IL-31; experiment: Affinity of anti-IL-31 antibodies by surface plasmon resonance (Biacore), feline IL-31 surface; format: binding; conditions: IL-31 conjugated to the surface (FIG. 2)
Outline: (§5)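 IL-31 amine-coupled (NHS/EDC) at 5 μg/mL directly onto the SPR chip, quenched with ethanolamine; candidate mAbs flowed over as analyte. KD from 1:1 model fits; values below 1×10^−11 M are under the instrument's lower quantitation limit.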

[8] = target: canine IL-31; experiment: Affinity of anti-IL-31 antibodies by surface plasmon resonance (Biacore), canine IL-31 surface; format: binding; conditions: IL-31 conjugated to the surface (FIG. 2)
canine IL-31, sequence (as listed by the source): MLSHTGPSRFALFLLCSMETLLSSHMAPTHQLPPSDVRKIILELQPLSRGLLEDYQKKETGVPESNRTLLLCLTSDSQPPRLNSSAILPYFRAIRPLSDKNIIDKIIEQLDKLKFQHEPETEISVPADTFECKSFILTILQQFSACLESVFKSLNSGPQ
Outline: as §5

[9] = system: feline IL-31; experiment: Inhibition of feline IL-31 induced pSTAT3 signaling in feline FCWF4 macrophage-like cells; format: cell-based; conditions: 0.2 μg/mL feline IL-31, pSTAT3, FCWF4 cells (FIG. 3)
Protocol: (§6) To identify candidates with inhibitory activity, antibodies were assessed for their ability to affect IL-31-mediated STAT3 phosphorylation in either a canine or feline cell-based assay. STAT3 phosphorylation was determined in canine DH-82 (ATCC® CRL-10389™) or feline FCWF4 macrophage-like cells (ATCC CRL-2787). DH82 and FCWF4 cells were primed with canine interferon gamma (R&D Systems, Minneapolis, Minn.) at 10 ng/mL for 24 hours or feline interferon gamma (R&D Systems, Minneapolis, Minn.) at 125 ng/mL for 96 hours, respectively, to increase receptor expression. Both cell types were serum starved for 2 hours prior to IL-31 and mAb treatment. Using two independent methods, all candidate mAbs were evaluated for their ability to inhibit either 1 μg/mL canine or 0.2 μg/mL feline IL-31 induced STAT3 phosphorylation. […] To ensure complex formation, a one hour co-incubation of mAb and IL-31 cytokine prior to cell stimulation was completed. IL-31 cell stimulation was carried out for five minutes. STAT3 phosphorylation was measured using AlphaLISA SureFire ULTRA™ technology (Perkin Elmer, Waltham, Mass.). In the case where antibody concentration and purity are unknown, hybridoma supernatants were qualitatively measured for their ability to inhibit STAT3 phosphorylation following a 1 hour co-incubation with […] IL-31. The potency of individual monoclonal antibodies defined by their ability to inhibit IL-31 mediated STAT3 phosphorylation in these assays was considered the key selection criteria for further advancement of select antibodies. The term potency refers to the IC50 value calculated from these assays and is the concentration of the antibody where signaling induced by IL-31 is reduced to one half its maximal value.

[10] = system: feline IL-31; experiment: Inhibition of feline IL-31 induced pSTAT3 signaling in canine DH-82 cells; format: cell-based; conditions: feline IL-31, pSTAT3, canine DH82 cells (FIG. 3)
Protocol: as §6
Target sequence in this assay (as listed by the source): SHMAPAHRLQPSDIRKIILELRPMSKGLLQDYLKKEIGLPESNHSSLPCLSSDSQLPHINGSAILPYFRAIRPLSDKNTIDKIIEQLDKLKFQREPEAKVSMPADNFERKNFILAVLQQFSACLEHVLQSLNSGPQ

[11] = system: feline IL-31 11E12 mutant; experiment: Indirect ELISA, binding to feline IL-31 11E12 mutant; conditions: compared with wildtype
Source text: as §3

[12] = system: wildtype feline IL-31; experiment: Biacore binding, single test concentration of antibody, feline IL-31 surface
Protocol: as §4
For the indirect ELISA method, antibody binding to wildtype and feline IL-31 15H05 mutant proteins was assessed. […] In comparison, the 11E12 antibody bound to the wild-type feline IL-31 and its binding was not impacted by the mutations in the 15H05 epitope region as evidenced by the data in FIG. 4. To confirm binding, biacore analysis was performed using canine, feline, equine, human, feline 15H05 mutant, and feline 11E12 mutant IL-31 proteins as surfaces and a single test concentration of antibody. Similar to ELISA observations, all antibodies tested bound to wildtype feline IL-31. In agreement with the data described above in this section, mouse antibodies 11 E12 and 15H05 both bound to canine and feline IL-31 surfaces. […] From this group of nine fully canine antibodies, only ZIL1 and ZIL9 cross-reacted with equine IL-31. […]

[13] = system: canine IL-31; experiment: Biacore binding, single test concentration of antibody, canine IL-31 surface
Protocol: as §4, §2

[14] = system: canine IL-31; experiment: Competition binding assessment using Biacore, canine IL-31 surface; conditions: sequential addition of 15H05 and 11E12, Biacore
Protocol: (§7) To further characterize the IL-31 epitopes bound by mAbs 15H05 and 11 E12, blocking experiments were performed using biacore where the surface containing the IL-31 protein was generated followed by sequential addition of antibodies. FIGS. 7A and 7B show the relative binding of each antibody to IL-31 following capture of 11E12 or 15H05. The columns labeled HBS-EP (assay buffer) indicate the maximum signal obtained from each antibody binding to the IL-31 surface alone without competition. […] The sensograms related to FIG. 7A show the disassociation kinetics of both antibodies are very slow on this newly formed biacore surface therefore no additional occupation of binding sites can occur with addition of the same antibody (data not shown).

[15] = system: feline IL-31; experiment: Competition binding assessment using Biacore, feline IL-31 surface; conditions: sequential addition of 15H05 and 11E12, Biacore
Protocol: as §7
Binding of additional antibody in the presence of the same antibody is a result of the increased off rate due to the poorer quality of the surface used. Increased off rates can be seen and compared to the KD values from newly formed feline IL-31 surfaces in FIG. 2.

| Molecule | binding of mouse anti equine IL-31 serum to mimotope ([1]; biotin peptide on streptavidin pins, 120 seconds association) | binding of control mouse serum to mimotope ([1]; serum of a mouse vaccinated with an unrelated protein) | binding to wildtype feline IL-31 (ELISA) [2] | binding to feline IL-31 15H05 mutant (ELISA) [3] | binding to equine IL-31 (Biacore) [4] | binding to feline 15H05 mutant IL-31 (Biacore) [5] | binding to feline 11E12 mutant IL-31 (Biacore) [6] | affinity (KD) to feline IL-31 [7] | affinity (KD) to canine IL-31 [8] | potency (IC50) against feline IL-31 in feline FCWF4 cells [9] | potency (IC50) against feline IL-31 in canine DH82 cells [10] | binding to feline IL-31 11E12 mutant (ELISA) [11] | binding to wildtype feline IL-31 (Biacore) [12] | binding to canine IL-31 (Biacore) [13] | competition binding on canine IL-31 [14] | competition binding on feline IL-31 [15] |
| --- | --- | --- | --- | --- | --- | --- | --- | --- | --- | --- | --- | --- | --- | --- | --- | --- |
| A helix: biotin GSG equine IL-31 mimotope N-GPIYQLQPKEIQAIIVELQNLSKK-C (Biotin-GSGGPIYQLQPKEIQAIIVELQNLSKK) | recognized as relevant immunogens | some dilution dependent signal | – | – | – | – | – | – | – | – | – | – | – | – | – | – |
| ZIL1: fully canine anti IL-31 antibody, VH SEQ ID NO: 75, VL SEQ ID NO: 77 (antibody, listed as Canis familiaris, V domains shown) VH: EVQLVESGGDLVKPGGSLRLSCVASGFTFSSYGMSWVRQAPGKGLQWVAHINSGGSSTYYADAVKGRFTISRDNAKNTLYLQMNSLRAEDTAVYYCVEVYTTLAAFWTDNFDYWGQGTLVTVSS VL: QSVLTQPTSVSGSLGQRVTISCSGSTNNIGILAATWYQQLPGKAPKVLVYSDGNRPSGVPDRFSGSKSGNSATLTITGLQAEDEADYYCQSFDTTLDAYVFGSGTQLTVL | – | – | capable of binding; also recorded: retained binding | binding was impacted; also recorded: decreased | cross-reacted | decreased | partially effected | – | – | – | – | – | – | – | – | – |
| 11E12: mouse-derived anti IL-31 antibody previously described in U.S. Pat. No. 8,790,651; for comparison (antibody, V domains shown) VH: QVQLQQSGAELVKPGASVKLSCKASGYTFKYYDINWVRQRPEQGLEWIGWIFPGDGGTKYNETFKGKATLTTDKSSSTAYMQLSRLTSEDSAVYFCARGGTSVIRDAMDYWGQGTSVTVSS VL: DIVLTQSPASLAVSLGQRATISCRASESVDNYGISFMHWYQQKPGQPPKLLIYRASNLESGIPARFSGSGSRTDFTLTINPVETDDVATYYCQQSNKDPLTFGAGTKLELK | – | – | bound; also recorded: capable of binding | not impacted; also recorded: no impact | – | bound | did not bind | high affinity | high affinity | comparable | comparable | highly attenuated | bound | bound | capable of binding to canine IL-31 in the presence of one another | no overlap in the epitope recognized |
